By Kd is commonly meant the concentration at which binding is half-saturated. Broadly, the koff is a measure of how fast the partners let go of each other. The kon is the rate constant with which the complex forms. What is called EC50 (read off the curve) is the concentration that produces a half-maximal response. Read a low EC50 (read off the curve) as greater potency.

The source of these data is patent US20160354479A1 (ESBATECH AN ALCON BIOMEDICAL RESEARCH UNIT, published 2016).

For test [1], the target named is T1, recombinant human VEGF165 (human, UniProt P15692-4 27-191).
T1 construct: Amine-coupled to a CM4 sensor chip; also called hVEGF165
T1 sequence (P15692 other isoform, or with tags, fused parts or gaps limits assumed): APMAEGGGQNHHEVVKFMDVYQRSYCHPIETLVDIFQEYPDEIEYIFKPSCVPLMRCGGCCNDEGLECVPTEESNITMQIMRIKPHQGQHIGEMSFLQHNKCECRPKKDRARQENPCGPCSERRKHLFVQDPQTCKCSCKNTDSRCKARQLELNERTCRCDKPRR
Description: SPR, BIAcore T100, hVEGF165 immobilized. The source says:
(§1) For binding affinity measurements, surface Plasmon resonance measurements with BIAcore™-T100 were employed. In these experiments, purified Escherichia coli-expressed recombinant human VEGF₁₆₅ (PeproTech EC Ltd) was used. Carboxymethylated dextran biosensor chips (CM4, GE Healthcare) were activated with N-ethyl-N′-(3-dimethylaminopropyl)carbodiimide hydrochloride and N-hydroxysuccinimide according to the supplier's instructions. Human VEGF₁₆₅ was coupled to 1 of the 4 different flow cells on a CM4 sensor chip using a standard amine-coupling procedure. The range of responses obtained with the immobilized hVEGF₁₆₅ molecule after coupling and blocking was approximately 120-140 response units (RU). The 4th flow cell of each chip was treated similarly except no proteins were immobilized prior to blocking, and the flow cell was used as in-line reference. Various concentrations of anti-VEGF scFvs (20 nM, 10 nM, 5 nM, 2.5 nM, 1.25 nM, 0.63 nM, 0.31 nM and 0.16 nM) in HBS-EP buffer (0.01 M HEPES, pH 7.4, 0.15 M NaCl, 3 mM EDTA, 0.005% surfactant P20) were injected into the flow cells at a flow rate of 30 μl/min for 5 min. […] The apparent dissociation rate constant (kd), the apparent association rate constant (kₐ) and the apparent dissociation equilibrium constant (KD) were calculated using one-to-one Langmuir binding model with BlAcore T100 evaluation Software version 1.1.

The target of test [2] is T1, recombinant human VEGF165. Description: SPR, BIAcore T100, hVEGF165 immobilized, 1:1 fit (FIG. 7B).
Text: as §1
(In general: Surface plasmon resonance follows binding to a sensor surface in real time, without labels.)

For test [3], the target named is T1, recombinant human VEGF165. Put plainly: SPR, BIAcore T100, hVEGF165 immobilized, 1:1 fit (FIG. 7A). An excerpt:
For binding affinity measurements, surface Plasmon resonance measurements with BIAcore™-T100 were employed. In these experiments, purified Escherichia coli-expressed recombinant human VEGF₁₆₅ (PeproTech EC Ltd) was used. Carboxymethylated dextran biosensor chips (CM4, GE Healthcare) were activated with N-ethyl-N′-(3-dimethylaminopropyl)carbodiimide hydrochloride and N-hydroxysuccinimide according to the supplier's instructions. Human VEGF₁₆₅ was coupled to 1 of the 4 different flow cells on a CM4 sensor chip using a standard amine-coupling procedure. The range of responses obtained with the immobilized hVEGF₁₆₅ molecule after coupling and blocking was approximately 120-140 response units (RU). The 4th flow cell of each chip was treated similarly except no proteins were immobilized prior to blocking, and the flow cell was used as in-line reference. Various concentrations of anti-VEGF scFvs (20 nM, 10 nM, 5 nM, 2.5 nM, 1.25 nM, 0.63 nM, 0.31 nM and 0.16 nM) in HBS-EP buffer (0.01 M HEPES, pH 7.4, 0.15 M NaCl, 3 mM EDTA, 0.005% surfactant P20) were injected into the flow cells at a flow rate of 30 μl/min for 5 min. Dissociation of the anti-VEGF scFv from the VEGF on the CM4 chip was allowed to proceed for 10 min at 25° C. Sensorgrams were generated for each anti-VEGF scFv sample after in-line reference cell correction followed by buffer sample subtraction. The apparent dissociation rate constant (kd), the apparent association rate constant (kₐ) and the apparent dissociation equilibrium constant (KD) were calculated using one-to-one Langmuir binding model with BlAcore T100 evaluation Software version 1.1.

Another test deals with T2, Human TNF alpha (human, UniProt P01375 77-233).
T2 construct: Coated on the ELISA plate
T2 sequence (P01375 77-233 limits assumed): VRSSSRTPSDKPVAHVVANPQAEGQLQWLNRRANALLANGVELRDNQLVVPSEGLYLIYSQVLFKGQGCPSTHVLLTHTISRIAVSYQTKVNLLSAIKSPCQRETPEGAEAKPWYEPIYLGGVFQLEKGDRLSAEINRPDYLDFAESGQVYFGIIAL
Put plainly: direct ELISA on coated human TNF alpha, detection with biotinylated rabbit anti-ESBA105 antibody and streptavidin poly-HRP, OD 450 nm. The procedure:
Binding of ESBA105 and its derivatives was assessed by a direct ELISA. Human TNF alpha (PeproTech EC Ltd) was coated on a 96-well microtitre plate and then blocked using BSA (bovine serum albumin). ESBA105 and ESBA105 derivates were tested at concentrations of 50 nM, 12.5 nM, 3.13 nM, 1.56 nM, 0.78 nM, 0.39 nM, 0.20 nM, 0.10 nM and 0.05 nM. Binding of ESBA105 and its derivatives to human TNF alpha was visualized by the subsequent addition of a biotinylated rabbit polyclonal anti-ESBA105 antibody (AK3A, generated at ESBATech), streptavidin Poly HRP and a chromogenic substrate (POD). The product of this reaction was detected by measurement of the optical densitiy (OD) at […] using a spectrophotometer. Data were analyzed using a 4-parameter logistic curve fit, and EC₅₀ values were calculated from the dose-response curves of the scFvs.
(In general: An ELISA detects its analyte on a solid surface through an enzyme-linked reagent.)

B1: ESBA903 SS Pep1 linker (scFv)
scFv: MEIVMTQSPSTLSASVGDRVIITCQASEIIHSWLAWYQQKPGKAPKLLIYLASTLASGVPSRFSGSGSGAEFTLTISSLQPDDFATYYCQNVYLASTNGANFGQGTKLTVLGGGGGSGGGGSCGAHWQFNALTVRCGGGGSGGGGSEVQLVESGGGLVQPGGSLRLSCTASGFSLTDYYYMTWVRQAPGKGLEWVGFIDPDDDPYYATWAKGRFTISRDTSKNTVYLQMNSLRAEDTAVYYCAGGDHNSGWGLDIWGQGTLVTVSS
notes: also called ESBA903-Pep1
As to B1, in test [1], the Kd turned out to be 44.4 pM. In test [2], the koff worked out at 5.03e-05 s⁻¹ and the kon stood at 1.13e+06 M⁻¹ s⁻¹.

B2: ESBA903 (scFv)
scFv: MEIVMTQSPSTLSASVGDRVIITCQASEIIHSWLAWYQQKPGKAPKLLIYLASTLASGVPSRFSGSGSGAEFTLTISSLQPDDFATYYCQNVYLASTNGANFGQGTKLTVLGGGGGSGGGGSGGGGSGGGGSEVQLVESGGGLVQPGGSLRLSCTASGFSLTDYYYMTWVRQAPGKGLEWVGFIDPDDDPYYATWAKGRFTISRDTSKNTVYLQMNSLRAEDTAVYYCAGGDHNSGWGLDIWGQGTLVTVSS
notes: Anti-VEGF scFv; also called ESBA903 Normal linker; unmodified ESBA903
As to B2, in test [3], the Kd was 56.1 pM, the koff amounted to 4.31e-05 s⁻¹ and the kon was found to be 768000 M⁻¹ s⁻¹.

B3: ESBA105 (scFv)
scFv: MADIVMTQSPSSLSASVGDRVTLTCTASQSVSNDVVWYQQRPGKAPKLLIYSAFNRYTGVPSRFSGRGYGTDFTLTISSLQPEDVAVYYCQQDYNSPRTFGQGTKLEVKRGGGGSGGGGSGGGGSSGGGSQVQLVQSGAEVKKPGASVKVSCTASGYTFTHYGMNWVRQAPGKGLEWMGWINTYTGEPTYADKFKDRFTFSLETSASTVYMELTSLTSDDTAVYYCARERGDAMDYWGQGTLVTVSS
notes: Untreated scFv (VL-linker-VH), made in E. coli; also called ESBA105 Normal linker; naked ESBA105
For the molecule B3, in the test with Human TNF alpha, the “EC50 (read off the curve)” value is approximately 1000 pM.

B4: ESBA105-SS-linker (scFv)
scFv: MADIVMTQSPSSLSASVGDRVTLTCTASQSVSNDVVWYQQRPGKAPKLLIYSAFNRYTGVPSRFSGRGYGTDFTLTISSLQPEDVAVYYCQQDYNSPRTFGQGTKLEVKRGGGGSGGGGSCGGGSGGGCGGGGSGGGGSQVQLVQSGAEVKKPGASVKVSCTASGYTFTHYGMNWVRQAPGKGLEWMGWINTYTGEPTYADKFKDRFTFSLETSASTVYMELTSLTSDDTAVYYCARERGDAMDYWGQGTLVTVSS
notes: un-pegylated
On to B4, for which the “EC50 (read off the curve)” value in the test with Human TNF alpha is approximately 1000 pM.
